Results from patent US20230279055A1 (University of Washington, published 2023).

Columns and labels:
[1] = target: the molecule itself; test: SEC-MALS, oligomeric state of the dominant species (D = dimer)
Protocol: (§1) FIG. 14. […] Samples were prepared in 20 mM Tris·HCl, 150 mM sodium chloride, pH 7.5.
(§2) To ascertain the oligomerisation state of dIG proteins, SEC-MALS was performed in a Dawn Helios™ II apparatus (Wyatt Technologies) coupled to a SEC Superdex™ 75 Increase 10/300 column. The column was equilibrated with PBS or buffer B at 25° C. and operated at a flow rate of 0.5 mL/min. A total volume of 100-165 μL of protein solution at 1-3.0 mg/mL was employed for each sample. Data processing and analysis proceeded with Astra 7 software (Wyatt Technologies), for which a typical dn/dc value for proteins (0.185 mL/g) was assumed.

[2] = target: the molecule itself; test: SEC-MALS, self-association, PBS buffer
Protocol: FIG. 13. […] All experiments were carried out with PBS buffer.
as §2

[3] = target: the molecule itself; test: SEC-MALS, oligomeric state of the dominant species (M = monomer, D = dimer)
Protocol: FIG. 12. Biochemical characterization of the dIG8 design. a, Far-ultraviolet circular dichroism spectra (25° C., 95° C.). b, Thermal denaturation monitored at 220 nm by circular dichroism. The design denatures at temperatures above 95° C. c, SEC-MALS analysis. The protein is monodispersed and has an estimated molecular weight of 16.6 kDa, which lies between that corresponding to the theoretical monomer (10.3 kDa) and dimer (20.6 kDa). The protein includes the thrombin cleavage site and the hexa-histidine purification tag, which adds 2.3 kDa to the design. d, Chemical denaturation with guanidine hydrochloride monitored at 220 nm by circular dichroism. […] All experiments were carried out with PBS buffer.
as §1, §2

[4] = target: the molecule itself; test: SEC-MALS, self-association

B1: dIG22 (other)
chain: SIEVRVKGDRYEFRNNSDKPATLEVEKNGKREEYHMNPGESVEVRGPPGQDIRFEMTMDGTTYRYRLS
notes: De novo designed immunoglobulin-like domain; not shown: N-terminal thrombin-cleavable His6-tag encoded by pET-28b+
B1: binds [1].

B2: dIG21 (other)
chain: SIEVRVKGDRYEFRNNSDKPATLEVEKNGKREEYHMNPGESVEVRGEPGQDIRFEMVMEGTTYRYRLS
notes: as for B1
B2: no binding [2].

B3: dIG8-CC (other)
chain: GHMRIEVRVDNGRVRVRNGTDRPCRVRVTAGGETREYTVNPGTELEVELSPEQQNNAEVEVECGNEKYRFQLG
modifications: C21 and C60 found both disulfide-linked and unbound in the crystals
notes: De novo designed immunoglobulin-like domain, double mutant of dIG8; Built as the untagged crystallization construct; also called dIG8-CC (V21C, V60C)
B3: binds [3].

B4: dIG8 (other)
chain: RIEVRVDNGRVRVRNGTDRPVRVRVTAGGETREYTVNPGTELEVELSPEQQNNAEVEVEVGNEKYRFQLG
notes: De novo designed immunoglobulin-like domain; also called parental dIG8; not shown: N-terminal hexa-histidine tag and thrombin cleavage site from pET-28b+ (adds 2.3 kDa)
B4: binds [3].

B5: dIG14 (other)
chain: MGRVEVRVEFEGDKMRVRLRNDSSTPVEVHIKVGDEKRTVTVNPGEEVEVTFSANDPHKFNRPQFTIEWGGQRQHFQHHHHHH
notes: De novo designed immunoglobulin-like domain; Built here as the crystallization construct (pET28*-dIG14); it may instead be the pET-28b+ form with an N-terminal thrombin-cleavable His6-tag; also called designed ImmunoGlobulin 14
B5: binds [1].

B6: dIG7 (other)
chain: RMEVRVSNGRVEIENKSSQPGRVEVRFNGKRYEYTANPGERVEVEVSPEELKNLRVRLEYDGKTEETQYS
notes: as for B1
B6: binds [1].

B7: dIG15 (other)
chain: RPKVQLELHGNKMRVRLRNDSSTPVEVHIKVGDEKRTVTVNPGEEVEVTFSTTDPRELKNATIQLHQGDQTVEYRVD
notes: as for B1
B7: binds [1].

B8: dIG14-scdim (other)
chain: GRVEVRVEFEGDKMRVRLRNDSSTPVEVHIKVGDEKRTVTVNPGEEVEVTFSANDPHKFNRPQFTIEWGGGGRVEVRVEFEGDKMRVRLRNDSSTPVEVHIKVGDEKRTVTVNPGEEVEVTFSANDPHKFNRPQFTIEWG
notes: Two 6-stranded dIG14 domains (X1-X13) fused by a diglycine linker; also called single-chain dimer; dIG14-scdim designed with a GG linker
B8: no binding [4].

B9: dIG23 (other)
chain: DLEVRRKDGKFEFRNNSDKPATLEVEKDGQREEYRMNPGETIEVQAPPGQDVRFTVEMPGREYRYKLD
notes: as for B1
B9: binds [1].
